The values below come from patent US20240417462A1 (SHANGHAI CELGEN BIO PHARMACEUTICAL, published 2024).

In test [1] the target is T1, full-length human TIGIT expressed on CHO-K cell membrane (CHO-K-TIGIT) (human, UniProt Q495A1 22-244).
T1 construct: whole, on cells; also called CHO-TIGIT; membrane TIGIT
T1 sequence (looked up): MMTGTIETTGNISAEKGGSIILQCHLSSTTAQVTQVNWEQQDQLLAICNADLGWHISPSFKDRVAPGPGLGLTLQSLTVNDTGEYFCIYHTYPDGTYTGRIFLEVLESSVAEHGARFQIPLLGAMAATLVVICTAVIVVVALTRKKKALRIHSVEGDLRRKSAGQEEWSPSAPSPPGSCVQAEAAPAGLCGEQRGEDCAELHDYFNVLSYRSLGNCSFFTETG
The test is described as follows: flow cytometry, CHO-TIGIT cells. A general note: A flow cytometer gives signals particle by particle.

Test [2] deals with T2, recombinant cynomolgus monkey TIGIT (cynomolgus monkey, UniProt A0A7N9I9V4 89-209).
T2 construct: construct not described; also called cynomolgus TIGIT
T2 sequence (A0A7N9I9V4 entry or part of it): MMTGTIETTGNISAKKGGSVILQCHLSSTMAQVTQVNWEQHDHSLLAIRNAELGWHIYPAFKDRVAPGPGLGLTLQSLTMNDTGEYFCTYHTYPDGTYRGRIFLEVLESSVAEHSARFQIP
As to the kind of experiment: ELISA, coated cynomolgus TIGIT. The method, then: (§1) The cynomolgus monkey or mouse TIGIT antigen of was coated with the same method as above, the anti-human TIGIT mouse monoclonal antibody was diluted in gradient, and then the anti-mouse Fab secondary antibody was added (Jackson Immuno Research, 515-035-072) for TMB development. ELISA was used to detect the binding of 8 mouse monoclonal antibodies to recombinant cynomolgus monkey TIGIT.
(An ELISA detects its analyte on a solid surface through an enzyme-linked reagent.)

The target of test [3] is T2, recombinant cynomolgus monkey TIGIT. As to the kind of experiment: ELISA, recombinant cynomolgus TIGIT coated, anti-mouse Fab secondary antibody, TMB, OD450/655nm. The method, then:
as §1

Test [4] concerns the target T3, recombinant human TIGIT (Human TIGIT His, Sino Biological, 10917-H08H) (human, UniProt Q495A1 22-138).
T3 construct: range 1-138; bought; also called hTIGIT
T3 sequence (looked up): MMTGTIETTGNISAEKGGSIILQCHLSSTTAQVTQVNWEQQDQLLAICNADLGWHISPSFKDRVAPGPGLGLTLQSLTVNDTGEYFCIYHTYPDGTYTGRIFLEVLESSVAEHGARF
As to the kind of experiment: competition ELISA, coated TIGIT-His, CD155-Fc as competitor. The method, then:
In order to evaluate the competition between the anti-human TIGIT mouse monoclonal antibody and CD155 (Human CD155 (Fc Tag): Sino Biological, 10109-H02H) for binding to recombinant human TIGIT (Human TIGIT(His), Sino Biological, 10917-H08H), ELISA detection was performed, and the specific steps were as follows:
Primary antibody incubation: the plate was washed twice with PBS (250 μl/well), and patched dry. 6 μg/ml of CD155 was respectively diluted in a binding solution and added into a 96-well dilution plate at 60 μl/well. Then the screened hybridoma antibody was diluted with the binding solution, (the highest concentration was 30 μg/ml), and diluted to 3 times of concentration, and added into the corresponding dilution plate above at 60 μl/well. After mixing well, the sample was added to the coated 96-well ELISA plate at 100 μl/well. The plate was sealed with a sealing film and placed at 37° C. for 1.5 hours.
Secondary antibody incubation: the blocking solution was discarded, the plate was washed with 250 μl PBST for 3 times, and patched dry.

The target of test [5] is T3, recombinant human TIGIT (Human TIGIT …). The test is described as follows: ELISA, coated human TIGIT-His.
In test [6] the target is T4, mouse TIGIT antigen (mouse, UniProt P86176 29-148, limits assumed).
T4 construct: construct not described; also called murine TIGIT
T4 sequence (looked up): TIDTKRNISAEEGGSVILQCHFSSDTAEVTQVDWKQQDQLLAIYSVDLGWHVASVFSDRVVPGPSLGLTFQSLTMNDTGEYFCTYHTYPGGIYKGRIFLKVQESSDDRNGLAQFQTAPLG
The test is described as follows: ELISA, coated mouse TIGIT. On the procedure: as §1

B1: anti-human TIGIT mouse monoclonal antibody 7103-06 (antibody, V domains shown)
VH: EEQLVESGGGLVKPGGTLKLSCAASGFTFSTYAMSWVRQSPEKRLEWVAEISSGGSYTYYSDTVTGRFTISRDNAKNTLYLEMSSLRSEDTAMYYCARKTLDYYALDYWGHGTSVTVSS
VL: DVQITQSPSYLAASPGETITINCRANKTISKYLAWYQEKPGKTNKLLIYSGSRLQSGIPSKFSGSGYGTDFTLTISSLEPEDFAMYYCQQHNEYPWTFGGGTKLEIK
notes: often printed as 7105-06; also called 7105-06; 47A2-1-2
On to B1, for which the EC50 (in general, the concentration that produces a half-maximal response) in test [1] came to 0.256 nM; in test [2], 0.174 nM; in test [3], 0.026 µg/mL; in test [5] it was 0.0393 nM. Besides, in test [4], the IC50 (in general, the concentration that inhibits the measured activity by half) worked out at 0.0607 nM. In addition, in test [6], the binding result is reported as “no binding”.

B2: anti-human TIGIT mouse monoclonal antibody 7103-07 (antibody, V domains shown)
VH: EVQVVESGGGLVKPGGTLKLSCAASGFTFSTYAMSWVRQSPEQRLEWVAEISSGGSHTFYSDTVTGRFTISRDNAQNTLYLEMNSLRSEDTAMYYCARKTLDYYALDYWGQGTSVTVSS
VL: DVQITQSPSYLAASPGETITINCRASKSISKYLAWYQEKPGKTNKLLIYSGSRLQSGIPSKFSGSGYGTDFTLTISSLEPEDFAMYYCQQHNEYPWTFGGGTKVEIK
notes: also called 42C12-1-2
For B2, the EC50 came out at 0.226 nM in test [1], 0.704 nM in test [2], 0.106 µg/mL in test [3] and 0.075 nM in test [5]. Moreover, in test [4], the IC50 was 0.159 nM. Further, the binding result in test [6] is recorded as “no binding”.

B3: anti-human TIGIT mouse monoclonal antibody 7103-01 (antibody, V domains shown)
VH: QVQLQQPGAELVKPGASVKLSCKASGYTFISYNIYWVKQRPGQGLEWIGGVNPSNGNTNFNENFKSKATLTVDKSSSTAYMQLSSLTSDDSAVYFCTRGNYYGYEFAYWGQGTLVTVSA
VL: DIVMTQSHKFMSTSVGDRVSITCKASQHVSTAVAWYQQKPGQSPKLLIYSPSYRYTGVPDRFTGSGSGTDFTFTISSVQAEDLAVYYCQQHYSTPWTFGGGTKLEIK
notes: also called 31E10-2-1
Regarding B3, the EC50 in test [1] worked out at 0.499 nM; in test [2], 1.07 nM; in test [3] it was 0.16 µg/mL; in test [5] it was 0.0647 nM. Besides, the IC50 in test [4] came out at 0.178 nM. Further, in test [6], the binding result is recorded as “no binding”.

B4: anti-human TIGIT mouse monoclonal antibody 7103-04 (antibody, V domains shown)
VH: VQLQESGAELVKPGASVKLSCRASGYTFTDYFVYWVKQRPGQGLEWIGGINPSNGGATFNEKFKNKATLTVDTSSSTAYMQLSSLTSEDSAIYYCTRGNFYGYEFAYWGQGTLVTVSA
VL: DIVMTQSHKFISTSVGDRVSITCKASQHVSTAVVWYQQKPGQSPKLLIYSPSYRYTGVPDRFTGSGSGTDFTFTISSVQAEDLAVYYCQQHYITPWTFGGGTKLEIK
notes: also called 40E6-2-2
As for B4, the EC50 was determined as 0.44 nM in test [1], 0.334 nM in test [2], 0.05 µg/mL in test [3] and 0.0727 nM in test [5]. Besides, in test [4], the IC50 amounted to 0.183 nM. Also, in test [6], the binding result is “no binding”.

B5: anti-human TIGIT mouse monoclonal antibody 7103-03 (antibody, V domains shown)
VH: EVQLQQSGPELVKPGASVKISCKTSGYTFTEYTMHWVKQSHGKSLEWIGGINPNNGGTSYNQKFKGKATLTVDKSSSTAYMELRSLTSEDSAVYYCARGAYYRYDFDYWGQGTTLTVSS
VL: DIVMTQSHKFMSTSVGDRVSITCKASQDVRTAVVWYQQKPGQSPKLLIYSASYRYTGVPDRFTGSGSGTDFTFTISSVQAEDLAVYYCQQHYSTPWTFGGGTKLEIK
notes: also called 36H8-2-2
With B5, the EC50 in test [1] was 0.347 nM; in test [2], 0.398 nM; in test [3], 0.06 µg/mL; in test [5], 0.0674 nM. Also, the IC50 in test [4] stood at 0.141 nM. The binding result in test [6] is recorded as “no binding”.
